Assay results as given in the RNAGym collection of RNA variant scans (doi:10.1021/acssynbio.7b00057).

B1: Pistol ribozyme (parent)
chain: GGGUCGUUGUUCCAUAAUCGCGUGGAUAUGGCACGCAAGUUUCUACCGGGCACCGUAAAUGUCCGACUGGAGCCGUUCGGGCGGCUAUAAACAGACCUCAGGCCCGAAGCGUGGCGGCACCUGCCGCCGGUGGUAAAAAAGAUCGGAAGAGCACACGUCU

Variants of: B1
Test: aptazyme ON/OFF ratio, guanine; higher = stronger switching; co-transcriptional cleavage with and without guanine

Variant | aptazyme ON/OFF ratio
GGGUCGGUCGCGAAUAAUCGCGUGGAUAUGGCACGCAAGUUUCUACCGGGCACCGUAAAUGUCCGACUGGAGCCGUUCGGGCGGCUAUAAACAGACCUCAGGCCCGAAGCGUGGCGGCACCUGCCGCCGGUGGUAAAAAAGAUCGGAAGAGCACACGUCU [U7G G9C U10G U11C C12G C13A] | 1.27
GGGUCGGUCGCGGAUAAUCGCGUGGAUAUGGCACGCAAGUUUCUACCGGGCACCGUAAAUGUCCGACUGGAGCCGUUCGGGCGGCUAUAAACAGACCUCAGGCCCGAAGCGUGGCGGCACCUGCCGCCGGUGGUAAAAAAGAUCGGAAGAGCACACGUCU [U7G G9C U10G U11C C12G C13G] | 1.07
GGGUCGGUCGCGUAUAAUCGCGUGGAUAUGGCACGCAAGUUUCUACCGGGCACCGUAAAUGUCCGACUGGAGCCGUUCGGGCGGCUAUAAACAGACCUCAGGCCCGAAGCGUGGCGGCACCUGCCGCCGGUGGUAAAAAAGAUCGGAAGAGCACACGUCU [U7G G9C U10G U11C C12G C13U] | 1.21
GGGUCGGUCGGGCAUAAUCGCGUGGAUAUGGCACGCAAGUUUCUACCGGGCACCGUAAAUGUCCGACUGGAGCCGUUCGGGCGGCUAUAAACAGACCUCAGGCCCGAAGCGUGGCGGCACCUGCCGCCGGUGGUAAAAAAGAUCGGAAGAGCACACGUCU [U7G G9C U10G U11G C12G] | 1.07
GGGUCGGUCGGUCAUAAUCGCGUGGAUAUGGCACGCAAGUUUCUACCGGGCACCGUAAAUGUCCGACUGGAGCCGUUCGGGCGGCUAUAAACAGACCUCAGGCCCGAAGCGUGGCGGCACCUGCCGCCGGUGGUAAAAAAGAUCGGAAGAGCACACGUCU [U7G G9C U10G U11G C12U] | 1.32
GGGUCGGUCGGACAUAAUCGCGUGGAUAUGGCACGCAAGUUUCUACCGGGCACCGUAAAUGUCCGACUGGAGCCGUUCGGGCGGCUAUAAACAGACCUCAGGCCCGAAGCGUGGCGGCACCUGCCGCCGGUGGUAAAAAAGAUCGGAAGAGCACACGUCU [U7G G9C U10G U11G C12A] | 1.05
GGGUCGGUCGCUAAUAAUCGCGUGGAUAUGGCACGCAAGUUUCUACCGGGCACCGUAAAUGUCCGACUGGAGCCGUUCGGGCGGCUAUAAACAGACCUCAGGCCCGAAGCGUGGCGGCACCUGCCGCCGGUGGUAAAAAAGAUCGGAAGAGCACACGUCU [U7G G9C U10G U11C C12U C13A] | 1.29
GGGUCGGUCGCUGAUAAUCGCGUGGAUAUGGCACGCAAGUUUCUACCGGGCACCGUAAAUGUCCGACUGGAGCCGUUCGGGCGGCUAUAAACAGACCUCAGGCCCGAAGCGUGGCGGCACCUGCCGCCGGUGGUAAAAAAGAUCGGAAGAGCACACGUCU [U7G G9C U10G U11C C12U C13G] | 1.26
GGGUCGGUCGCUUAUAAUCGCGUGGAUAUGGCACGCAAGUUUCUACCGGGCACCGUAAAUGUCCGACUGGAGCCGUUCGGGCGGCUAUAAACAGACCUCAGGCCCGAAGCGUGGCGGCACCUGCCGCCGGUGGUAAAAAAGAUCGGAAGAGCACACGUCU [U7G G9C U10G U11C C12U C13U] | 1.19
GGGUCGGUCGACUAUAAUCGCGUGGAUAUGGCACGCAAGUUUCUACCGGGCACCGUAAAUGUCCGACUGGAGCCGUUCGGGCGGCUAUAAACAGACCUCAGGCCCGAAGCGUGGCGGCACCUGCCGCCGGUGGUAAAAAAGAUCGGAAGAGCACACGUCU [U7G G9C U10G U11A C13U] | 1.24
GGGUCGGUCGACGAUAAUCGCGUGGAUAUGGCACGCAAGUUUCUACCGGGCACCGUAAAUGUCCGACUGGAGCCGUUCGGGCGGCUAUAAACAGACCUCAGGCCCGAAGCGUGGCGGCACCUGCCGCCGGUGGUAAAAAAGAUCGGAAGAGCACACGUCU [U7G G9C U10G U11A C13G] | 1.16
GGGUCGGUCGACAAUAAUCGCGUGGAUAUGGCACGCAAGUUUCUACCGGGCACCGUAAAUGUCCGACUGGAGCCGUUCGGGCGGCUAUAAACAGACCUCAGGCCCGAAGCGUGGCGGCACCUGCCGCCGGUGGUAAAAAAGAUCGGAAGAGCACACGUCU [U7G G9C U10G U11A C13A] | 1.18
GGGUCGGUCGCCCAUAAUCGCGUGGAUAUGGCACGCAAGUUUCUACCGGGCACCGUAAAUGUCCGACUGGAGCCGUUCGGGCGGCUAUAAACAGACCUCAGGCCCGAAGCGUGGCGGCACCUGCCGCCGGUGGUAAAAAAGAUCGGAAGAGCACACGUCU [U7G G9C U10G U11C] | 1.17
GGGUCGGUCGGCCAUAAUCGCGUGGAUAUGGCACGCAAGUUUCUACCGGGCACCGUAAAUGUCCGACUGGAGCCGUUCGGGCGGCUAUAAACAGACCUCAGGCCCGAAGCGUGGCGGCACCUGCCGCCGGUGGUAAAAAAGAUCGGAAGAGCACACGUCU [U7G G9C U10G U11G] | 2.48
GGGUCGGUCGCAUAUAAUCGCGUGGAUAUGGCACGCAAGUUUCUACCGGGCACCGUAAAUGUCCGACUGGAGCCGUUCGGGCGGCUAUAAACAGACCUCAGGCCCGAAGCGUGGCGGCACCUGCCGCCGGUGGUAAAAAAGAUCGGAAGAGCACACGUCU [U7G G9C U10G U11C C12A C13U] | 1.33
GGGUCGGUCGCAAAUAAUCGCGUGGAUAUGGCACGCAAGUUUCUACCGGGCACCGUAAAUGUCCGACUGGAGCCGUUCGGGCGGCUAUAAACAGACCUCAGGCCCGAAGCGUGGCGGCACCUGCCGCCGGUGGUAAAAAAGAUCGGAAGAGCACACGUCU [U7G G9C U10G U11C C12A C13A] | 1.19
GGGUCGGUCGCAGAUAAUCGCGUGGAUAUGGCACGCAAGUUUCUACCGGGCACCGUAAAUGUCCGACUGGAGCCGUUCGGGCGGCUAUAAACAGACCUCAGGCCCGAAGCGUGGCGGCACCUGCCGCCGGUGGUAAAAAAGAUCGGAAGAGCACACGUCU [U7G G9C U10G U11C C12A C13G] | 1.23
GGGUCGGUCGAGGAUAAUCGCGUGGAUAUGGCACGCAAGUUUCUACCGGGCACCGUAAAUGUCCGACUGGAGCCGUUCGGGCGGCUAUAAACAGACCUCAGGCCCGAAGCGUGGCGGCACCUGCCGCCGGUGGUAAAAAAGAUCGGAAGAGCACACGUCU [U7G G9C U10G U11A C12G C13G] | 1.18
